Data on one substance can be found in PMC10715030.

Where only a bound is given, the exact number is not on record here.

In assay [1] the target is c-type human lysozyme (human) (UniProt P61626).
Assay [2] concerns the target AP205 capsid virus-like particle displaying the complementary Catcher (SpyCatcher-VLP) (not stated | Acinetobacter phage AP205). Kind of assay: SDS-PAGE of covalent Tag/Catcher coupling (densitometry); N-SliC or C-SliC mixed with complementary SpyCatcher VLPs at a molar ratio of 1:3, 2 h, room temperature, PBS; covalently coupled band at ~45 kDa; coupling efficiency by densitometry (ImageQuant).

Chain of UniProt P61626 (P61626 19-148): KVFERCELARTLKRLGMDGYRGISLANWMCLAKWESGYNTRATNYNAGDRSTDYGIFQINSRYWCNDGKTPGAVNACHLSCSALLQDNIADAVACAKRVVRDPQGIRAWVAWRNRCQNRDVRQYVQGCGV

As for “SliC with the N-terminal SpyTag (N-SliC)”, in assay [1], the lytic activity of HL (2.5 µM) on DQ lysozyme substrate (EnzChek Lysozyme Assay Kit), N-SliC 0-5 µM, 30 min at 37°C before substrate is > 1.25 µM. Moreover, in assay [2], the cVLP subunits carrying SliC (of 180) (subunits per cVLP) was determined as 140 and the coupling efficiency stood at 77%.
